# Source: paper PMC6901573
# How the values were obtained:
# [1] = molecular target: Human hemoglobin A, oxidized form (methemoglobin, MetHb) (human) (UniProt P69905); experiment: SEC; tetramer to dimers; HiLoad 16/600 Superdex 75 in reaction buffer (Tris/HCl 100 mM, NaCl 150 mM, EDTA 1 mM, pH 8.0); Hb in the oxy and met forms injected at different concentrations
# [2] = molecular target: Human hemoglobin A, reduced oxygenated form (OxyHb) (human) (UniProt P69905); experiment: as above
Substance,Kd [1] [µM],Kd [2] [µM]
"Human hemoglobin A, oxidized form (methemoglobin, MetHb), P69905 1-142; P68871 1-147 (complex; other documents disagree on this pair)",0.52,
"Human hemoglobin A, reduced oxygenated form (OxyHb), P69905 1-142; P68871 1-147 (complex; other documents disagree on this pair)",,0.25
